Residue numbers refer to the chain shown, from its start.

B1: 75110_02E22A (antibody, V domains shown)
VH: QVQLQESGPGLVKPSETLSLTCTVSGGSISSFYWSWIRQPAGKGLEWIGRIYTSGSTNYNPSLKSRVTMSVDTSKNQFSLKLSSVTAADTAVYYCARELEKRNYYGMDVWGQGTTVTVSS
VL: DIQMTQSPSSLSASVGDRVTITCQASHDISNYLNWYQQKPGKAPKLLIFDASTLETGVPSRFSGSGSGTYFTFTIRSLQPEDIATYYCQQYDSLPLTFGGGTKVEIK
notes: Tested as non-clonal hybridoma supernatant (AlivaMab Mouse Kappa), detected with anti-mouse Fc and anti-human kappa
B2: 75110_04D20A (antibody, V domains shown)
VH: B1 VH with G26N, S31D, F32Y, V67I, K81E, K101R, R102Y, N103Y, Y104F, M107V
VL: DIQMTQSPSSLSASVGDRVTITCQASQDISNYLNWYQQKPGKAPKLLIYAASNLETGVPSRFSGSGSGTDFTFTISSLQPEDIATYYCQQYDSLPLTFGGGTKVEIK
notes: as for B1
B3: 75110_05E13A (antibody, V domains shown)
VH: EVQLVESGGDLVKPGGSLRLSCAASGFSFSNAWMSWVRQAPGKGLEWVGRVESKTDGGTTDYAAPVKDRFTISRDDSKYTLYLQMNSLKTEDSAVYYCTIGGGFGLELYGFFDYWGQGTLVTVSS
VL: DIQMTQSPSTLSASVGDRVTITCRASQSISSWLAWYQQKPGKAPMLLIYKASSLESGVPSRFSGSGSGTEFTLTISSLQPDDFATYYCLQYNSYYTFGQGTKLEIK
notes: as for B1
B4: 75110_07J24A (antibody, V domains shown)
VH: QAQLQESGPGLVKPSETLSLTCTVSGGSISSYYYNWIRQPAGKGLEWIGRIYTSGRTDYNPSLKSRVTMSADTSKNQFSLKLSSVTAADTAVYYCARDEGPTDAFDIWGQGTMVTVSS
VL: DIVMTQTPLSLPVTPGEPASISCRSSQSLLDSDDGNTYLDWYLQKPGQSPHLLIYTLSYRASGVPDRFSGSGSGSDFTLKISRVEAEDVGVYYCMQRIEFPFTFGPGTKVDIK
notes: as for B1
B5: 75110_05A11A (antibody, V domains shown)
VH: EVQLVESGGGLVKPGGSLTLSCAASGFTFSNTWMSWVRQAPGKGLEWVGRIKSKIDGGTTDYAAPVKGRFTISRDDSKNTLYLQMNSLKTEDTAVYYCTTSGTYSSGWGLFDYWGQGTLVTVSS
VL: DIQMTQSPSSLSASVGDRVTITCQASQDISNYLNWYQQKPGKAPKLLIYDTSNLEAGVPSRFSGSGSGTHFTLTISSLQPEDIATYYCQQYDNLPFTFGGGTRVEIK
notes: as for B1
B6: 75110_01C18A (antibody, V domains shown)
VH: EVQLVESGGGLIQPGGSLRLSCAASGFTVSSNYMNWVRQAPGKGLEWVSVIYAGDNTYSADSVKGRFTISRDNSNNTLCLQMNSLRAEDTAVYYCAREGGTTGAFDIWGQGTMVTVSS
VL: DIQMTQSPSSVSASVGDRVTITCRASQGINSWLAWYQQKPGKAPKLLIYAASSLQSGVPSRFSGSGSGTDFTLTISSLQPEDFATYYCQQGNSFPYTFGQGTKLEIK
notes: as for B1
B7: 75110_03I23A (antibody, V domains shown)
VH: QVQLQESGPGLVKPSETLSLTCTASGGSITSYYWNWIRQPAGKGLEWIGRIYTSGSTNYNPSLKSRVTMSVDTSKNQFSLKLSSVTAADTAVYYCARDPGYSDAFNIWGQGTMVTVSS
VL: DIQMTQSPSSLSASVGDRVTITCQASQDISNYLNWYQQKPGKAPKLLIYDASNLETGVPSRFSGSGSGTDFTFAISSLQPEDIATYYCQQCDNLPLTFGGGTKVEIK
notes: as for B1
B8: 75110_08A13A (antibody, V domains shown)
VH: EVQLVESGGGLVQPGGSLRLSCAASGFIFSSYWMSWVRQAPGKGLEWVANIKQDGSEKYYMDSVKGRFTISRDNAKNSLYLQMNSLRAEDTAVYYCARDNSYYYYGMDVWGQGTTVTVSS
VL: AIQMTQSPSSLSASVGDRVTITCRASQGIRDDLGWYQQKPGKAPKLLIFAASSLQSGVPSSFSGSGSGTDFTLTISSLQPEDFATYYCLHHYNYPYTFGQGTKLEIK
notes: as for B1
B9: 75110_02K11A (antibody, V domains shown)
VH: QVQLQESGPGLVKPSQTLSLTCTVSGGSISSGFYYWTWIRQHPGKGLEWIGYISYSGNTYYNPSFKSRLTISVDTSKSQFSLKLSSVTAADTAVYYCARDRPSNFDAFDIWGQGTMVTVSS
VL: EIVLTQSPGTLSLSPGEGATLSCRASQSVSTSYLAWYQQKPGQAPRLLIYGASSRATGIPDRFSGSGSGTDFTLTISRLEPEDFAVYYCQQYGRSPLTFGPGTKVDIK
notes: as for B1

The first experiment addresses T1, human CD4 on cells (SKW3 cells; human PBMCs) (human, UniProt P01730 26-458).
T1 construct: whole, on cells; SKW3 CD4 knockout cells served as the negative cell line for the WT vs KO ratios; also called hCD4; SKW3 WT
The experiment is described as follows: FACS confirmation, supernatant on human PBMCs, anti-mFc 647, CD4+ gate.
Regarding B1, the “CD4+ gate RL1 Binding” value came to 276000.

For the molecule B2, the “CD4+ gate RL1 Binding” value worked out at 174000.

On to B3, for which the “CD4+ gate RL1 Binding” value turned out to be 231000.

For B4, the “CD4+ gate RL1 Binding” value came to 234000.

In the case of B5, the “CD4+ gate RL1 Binding” value amounted to 247000.

Regarding B6, the “CD4+ gate RL1 Binding” value worked out at 308000.

As for B7, the “CD4+ gate RL1 Binding” value is 241000.

Consider B8, for which the “CD4+ gate RL1 Binding” value is 258000.

B9: the “CD4+ gate RL1 Binding” value was 296000.

The target in another experiment is T1, human CD4 on cells (SKW3 cells; human …). Description: FACS confirmation, supernatant on SKW3 WT cells, anti-mFc 647 (Bkrd gMFI = 3300).
Take B1: the gMFI was found to be 17300 gMFI.

The molecule B2 gave a gMFI of 21900 gMFI.

Molecule B3 returned a gMFI of 45600 gMFI.

On to B4, for which the gMFI turned out to be 30900 gMFI.

In turn, B5 had a gMFI of 24400 gMFI.

B6 gave a gMFI of 34900 gMFI.

For B7, the gMFI came to 13800 gMFI.

B8: the gMFI was found to be 9180 gMFI.

B9 returned a gMFI of 24800 gMFI.

For the next experiment the target is unchanged. The experiment is described as follows: FACS confirmation, supernatant on human PBMCs, anti-mFc 647, percent of viable cells.
Take B1: the “CD4+ Percent Bound of Viable” value amounted to 31%.

In the case of B2, the “CD4+ Percent Bound of Viable” value stood at 28%.

Take B3: the “CD4+ Percent Bound of Viable” value was 26%.

On to B4, for which the “CD4+ Percent Bound of Viable” value came out at 33%.

As for B5, the “CD4+ Percent Bound of Viable” value turned out to be 26%.

Turning to B6, the “CD4+ Percent Bound of Viable” value worked out at 31%.

On to B7, for which the “CD4+ Percent Bound of Viable” value is 28%.

On to B8, for which the “CD4+ Percent Bound of Viable” value was 29%.

Take B9: the “CD4+ Percent Bound of Viable” value came to 29%.

The target is the same in another experiment. Description: FACS confirmation, supernatant on SKW3 WT cells, anti-hu Kappa FITC (Bkrd gMFI = 2500).
On to B1, for which the gMFI is 4280 gMFI.

Take B2: the gMFI is 6790 gMFI.

Regarding B3, the gMFI was 8050 gMFI.

In turn, B4 came in with a gMFI of 5830 gMFI.

Take B5: the gMFI was 6620 gMFI.

The molecule B6 returned a gMFI of 6530 gMFI.

In turn, B7 yielded a gMFI of 5140 gMFI.

B8 gave a gMFI of 3140 gMFI.

B9 displayed a gMFI of 6660 gMFI.

Another experiment has the same target. Description: FACS primary screen, non-clonal hybridoma supernatant; SKW3 WT vs SKW3 CD4 KO cells, anti-mFc-647.
Take B1: the “SKW3 WT vs KO anti-mFc-647” value worked out at 4.7 fold.

Consider B2, for which the “SKW3 WT vs KO anti-mFc-647” value stood at 4.5 fold.

As for B3, the “SKW3 WT vs KO anti-mFc-647” value was 5.8 fold.

B4: the “SKW3 WT vs KO anti-mFc-647” value was found to be 6.2 fold.

B5: the “SKW3 WT vs KO anti-mFc-647” value worked out at 3.4 fold.

Turning to B6, the “SKW3 WT vs KO anti-mFc-647” value came out at 14.7 fold.

B7: the “SKW3 WT vs KO anti-mFc-647” value was determined as 4.1 fold.

Regarding B8, the “SKW3 WT vs KO anti-mFc-647” value is 2.7 fold.

With B9, the “SKW3 WT vs KO anti-mFc-647” value amounted to 10.3 fold.

Another experiment shares this target. The experiment is described as follows: SKW3 FACS binning; competitor OKT4-A488 added after supernatant (background 2163, max binding 8200).
For the molecule B1, the “OKT4 A488 signal in binning” value turned out to be 8480.

As for B2, the “OKT4 A488 signal in binning” value was found to be 7370.

Consider B3, for which the “OKT4 A488 signal in binning” value came out at 9330.

B4: the “OKT4 A488 signal in binning” value turned out to be 7730.

As for B5, the “OKT4 A488 signal in binning” value worked out at 8160.

For B6, the “OKT4 A488 signal in binning” value was 9490.

Turning to B7, the “OKT4 A488 signal in binning” value worked out at 9920.

For the molecule B8, the “OKT4 A488 signal in binning” value came out at 7980.

Take B9: the “OKT4 A488 signal in binning” value amounted to 8730.

A further experiment shares this target. Description: FACS primary screen, non-clonal hybridoma supernatant; SKW3 WT vs SKW3 CD4 KO cells, anti-hKappa-FITC.
B1: the “SKW3 WT vs KO anti-hKappa-FITC” value was 1.6 fold.

As to B2, the “SKW3 WT vs KO anti-hKappa-FITC” value amounted to 2.3 fold.

Regarding B3, the “SKW3 WT vs KO anti-hKappa-FITC” value is 1.9 fold.

Regarding B4, the “SKW3 WT vs KO anti-hKappa-FITC” value came out at 1.8 fold.

With B5, the “SKW3 WT vs KO anti-hKappa-FITC” value turned out to be 1.8 fold.

B6: the “SKW3 WT vs KO anti-hKappa-FITC” value came out at 3.7 fold.

As for B7, the “SKW3 WT vs KO anti-hKappa-FITC” value is 1.9 fold.

With B8, the “SKW3 WT vs KO anti-hKappa-FITC” value was 1 fold.

Consider B9, for which the “SKW3 WT vs KO anti-hKappa-FITC” value turned out to be 3.3 fold.

The next experiment shares this target. The experiment is described as follows: SKW3 FACS binning; competitor RPA-T4-PE-Dazzle 594 added after supernatant (background 783, max binding 15000).
In the case of B1, the “RPA-T4-PE-Dazzle 594 signal in binning” value was found to be 15300.

As to B2, the “RPA-T4-PE-Dazzle 594 signal in binning” value is 17100.

On to B3, for which the “RPA-T4-PE-Dazzle 594 signal in binning” value was 16500.

Turning to B4, the “RPA-T4-PE-Dazzle 594 signal in binning” value turned out to be 8460.

For B5, the “RPA-T4-PE-Dazzle 594 signal in binning” value turned out to be 17200.

On to B6, for which the “RPA-T4-PE-Dazzle 594 signal in binning” value was found to be 16500.

Regarding B7, the “RPA-T4-PE-Dazzle 594 signal in binning” value was determined as 14000.

Regarding B8, the “RPA-T4-PE-Dazzle 594 signal in binning” value worked out at 13300.

B9: the “RPA-T4-PE-Dazzle 594 signal in binning” value worked out at 15800.

For another experiment, the target named is T2, huCD4-HIS (human, UniProt P01730 26-390, limits assumed).
T2 construct: Named only in the head of the ELISA binning column; not shown: HIS tag
Description: ELISA binning; competitor Ibalizumab, 100 ng/mL huCD4-HIS, anti-HIS HRP detection (background 45, max binding 3000000). In general terms: An ELISA detects its analyte on a solid surface through an enzyme-linked reagent.
As for B1, the “Ibalizumab ELISA binning signal” value stood at 1.86e+06.

For B2, the “Ibalizumab ELISA binning signal” value is 2.11e+06.

Take B3: the “Ibalizumab ELISA binning signal” value was 45.

Take B4: the “Ibalizumab ELISA binning signal” value was found to be 215000.

As to B5, the “Ibalizumab ELISA binning signal” value came out at 45.

Take B6: the “Ibalizumab ELISA binning signal” value was found to be 1.78e+06.

Regarding B7, the “Ibalizumab ELISA binning signal” value amounted to 1.26e+06.

Take B8: the “Ibalizumab ELISA binning signal” value amounted to 230000.

On to B9, for which the “Ibalizumab ELISA binning signal” value came out at 1.99e+06.

The target of the next experiment is T1, human CD4 on cells (SKW3 cells; human …). The experiment is described as follows: SKW3 FACS binning; competitor OKT4a added after supernatant, anti-hu A647 secondary (background 5000, max binding 35000).
Regarding B1, the “OKT4a anti-hu A647 signal in binning” value is 41900.

For B2, the “OKT4a anti-hu A647 signal in binning” value amounted to 29200.

Take B3: the “OKT4a anti-hu A647 signal in binning” value came out at 36400.

With B4, the “OKT4a anti-hu A647 signal in binning” value amounted to 33800.

For B5, the “OKT4a anti-hu A647 signal in binning” value came out at 35000.

For the molecule B6, the “OKT4a anti-hu A647 signal in binning” value was 36200.

As to B7, the “OKT4a anti-hu A647 signal in binning” value was 15900.

Consider B8, for which the “OKT4a anti-hu A647 signal in binning” value stood at 42000.

In the case of B9, the “OKT4a anti-hu A647 signal in binning” value stood at 32200.

(Values after US20220112288A1 (published 2022).)
